Test results from patent publication US20240327543A1 (SHENGHE CHINA BIOPHARMACEUTICAL, published 2024).
Read-outs that look alike come from different tables or passages of the source.

Columns and labels:
Human-NKP30-His [1] = molecular target: T1, Human-NKP30-His (human, UniProt O14931 19-135, limits assumed); assay: ELISA, plate coated with Human-NKP30-His, detection with HRP goat anti-human IgG-Fc
T1 construct: Coated on the ELISA plate at 0.5 µg/mL; also called NKP30 protein; not shown: His tag
T1 sequence (looked up): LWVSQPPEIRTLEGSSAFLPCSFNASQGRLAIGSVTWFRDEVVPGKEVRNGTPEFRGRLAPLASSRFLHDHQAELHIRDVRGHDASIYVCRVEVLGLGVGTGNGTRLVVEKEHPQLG
Description: (§1) Human-NKP30-His was diluted to 0.5 μg/mL with PBS buffer at pH 7.4, added into the 96-well ELISA plate at 100 μL per well, coated overnight at 4° C., and blocked with 1% BSA blocking solution for 1 hour. The plate was washed 3 times with PBST, and the constructed antibodies were diluted to 10 μg/mL with 0.5% BSA sample diluent as the starting concentration, and then diluted by 3-fold gradient (11 gradients in total). A negative control (blank well and IgG1 isotype control) and a positive control were set, and the positive control was a NKP30 humanized antibody (sequence shown in SEQ ID No.32), and incubated at 37° C. for 1 h at 100 μL per well. […] The absorbance value of each well in the 96-well plate was determined by selecting the wavelength of 450 nm and the reference wavelength of 570 nm on a multifunctional enzyme marker, and the absorbance value (OD)=OD₄₅₀ₙₘ−OD₅₇₀ₙₘ. The logarithm of the concentration of the constructed antibodies were taken as the abscissa, and the measured absorbance value of each well was taken as the ordinate, and the Sigmoidaldose-response (Variable Slope) method (GraphPad Prism software, GraphPad Software, San Diego, California) was selected for nonlinear regression to obtain the binding curve of the target antibody to NKP30 protein.

Human-NKP30-His [2] = molecular target: T1, Human-NKP30-His; assay: as above; remark: listed apart in the source
Description: as §1

B1: NKP30 humanized antibody (SEQ ID No.32) (antibody, human IgG4 S228P, V domains shown)
VH: EVQLVESGGGLVQPGGSLRLSCAASGITFSRSVMGWFRQAPGKLRELVAGITSDDNTDYADSVKGRFTISRDNSKNTLYLQMNSLRAEDTAVYYCNILPDSRLGWGQGTLVTVSS
notes: It was detected with anti-human IgG-Fc; also called positive control; NKP30 monoclonal antibody
In the case of B1, the “EC50 (read off the curve)” value (Human-NKP30-His [1]) is reported as about 0.03 µg/mL and the “EC50 (read off the curve)” value (Human-NKP30-His [2]) is reported as about 0.03 µg/mL.
